# Assay results from the supplement of paper PMC10567573.
# B1: TRIM9 (parent)
# chain: PRNSCITCPQCHRSLILDDRGLRG
# Variants of: B1
# Assay: protein stability index of a GFP-peptide fusion (GPS, HEK-293T) (PSI 1-6); higher = more stable
# Conditions: c terminus: a fixed tail appended
# 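Note: lentivirally expressed fusions sorted by FACS into six bins by GFP to DsRed ratio, PSI derived from sequencing read proportions per bin multiplied by bin number.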
row,Variant,protein stability index
1,PRNSCITCPQCHRSLILDDRILRG,1.47
2,PRNSCITCPQCHRSLFLDDRGLRG,1.69
3,PRNSCITCPQCHRSKILDDRGLRG,2.12
4,PRNSCITCPQCGRSLILDDRGLRG,2.68
5,PRNSCITCPQCHRDLILDDRGLRG,2.4
6,PRNSCITCPQTHRSLILDDRGLRG,2.78
7,PRNSCITCPQCHTSLILDDRGLRG,3.47
8,PRNSCITCPQCHRSLILDPRGLRG,1.81
9,PRNSCITCPQCHKSLILDDRGLRG,1.95
10,PRNSCITCPQCHRLLILDDRGLRG,2.11
11,PRNSCITCPQCHRSLCLDDRGLRG,2.32
12,PRNSPITCPQCHRSLILDDRGLRG,2.49
13,PRNSCITCPQLHRSLILDDRGLRG,1.83
14,PRNSCGTCPQCHRSLILDDRGLRG,1.93
15,MRNSCITCPQCHRSLILDDRGLRG,1.76
16,PRNSCITCPQCHRSLQLDDRGLRG,2.69
17,PRESCITCPQCHRSLILDDRGLRG,2.16
18,PRNSCITCPQCHRSLILDLRGLRG,1.41
19,PRNECITCPQCHRSLILDDRGLRG,2.2
20,PRNSCHTCPQCHRSLILDDRGLRG,2.46
21,PRNSQITCPQCHRSLILDDRGLRG,1.92
22,PRNSCITCPQCHRSLSLDDRGLRG,2.97
23,PRNSCIQCPQCHRSLILDDRGLRG,2.38
24,PRNSCITYPQCHRSLILDDRGLRG,2.54

row,Variant,protein stability index
1,PRNSCITCPQCVRSLILDDRGLRG,3.37
2,PRNSCITCPQCYRSLILDDRGLRG,2.46
3,PRNSCITCPQCHRVLILDDRGLRG,3.13
4,PRNYCITCPQCHRSLILDDRGLRG,2.17
5,IRNSCITCPQCHRSLILDDRGLRG,2.33
6,PRNSCITCPFCHRSLILDDRGLRG,3
7,PRNSCITCPQCHRSLILDDRGLRA,2.13
8,PRNPCITCPQCHRSLILDDRGLRG,2.1
9,PRNSCITCPQCHRSLILPDRGLRG,1.49
10,PRNSCITCPQCHRSLILDDRGLRT,2.23
11,PRNSCITKPQCHRSLILDDRGLRG,2.4
12,PRNSCITCAQCHRSLILDDRGLRG,2.5
13,PRNSCTTCPQCHRSLILDDRGLRG,1.89
14,PRNSCITCPQCHRSLILDDRGLRI,2.03
15,PRNSCITCPQCHRSLILDDRGLRR,1.22
16,PRVSCITCPQCHRSLILDDRGLRG,1.83
17,PRNSCITCPQCHASLILDDRGLRG,3.91
18,PRNSCITCPQCHRSLILDQRGLRG,2.77
19,KRNSCITCPQCHRSLILDDRGLRG,2.48
20,PRNSCITCPQCHRSLILDDRGSRG,2.62
21,PRNSCITCPQCHRSLIEDDRGLRG,2.2
22,PRNSCITCPQCHRSLILDDRGFRG,1.91
23,PRNSCITCPQCHRWLILDDRGLRG,1.68
